Assay results: paper PMC11189300 (2024)

B1: full-length SPC24/SPC25 (complex)
chain 1: MAAFRDIEEVSQGLLSLLGANRAEAQQRRLLGRHEQVVERLLETQDGAEKQLREILTMEKEVAQSLLNAKEQVHQGGVELQQLEAGLQEAGEEDTRLKASLLQLTRELEELKEIEADLERQEKEVDEDTTVTIPSAVYVAQLYHQVSKIEWDYECEPGMVKGIHHGPSVAQPIHLDSTQLSRKFISDYLWSLVDTEW
chain 2: MVEDELALFDKSINEFWNKFKSTDTSCQMAGLRDTYKDSIKAFAEKLSVKLKEEERMVEMFLEYQNQISRQNKLIQEKKDNLLKLIAEVKGKKQELEVLTANIQDLKEEYSRKKETISTANKANAERLKRLQKSADLYKDRLGLEIRKIYGEKLQFIFTNIDPKNPESPFMFSLHLNEARDYEVSDSAPHLEGLAEFQENVRKTNNFSAFLANVRKAFTATVYN
B2: KNL1 (construct of the BLI titrations with ZWINT) (domain or fragment)
chain: GKLVQSAQNEREKLQIKIDEMDKILKKIDNCLTEMETETKNLEDEEKNNPVEEWDSEMRAAEKELEQLKTEEEELQRNLLELEVQKEQTLAQIDFMQKQRNRTEELLDQLSLSEWDVVEWSDDQAVFTFVYDTIQLTITFEESVVGFPFLDKRYRKIVDVNFQSLLDEDQAPPSSLLVHKLIFQYVEEKESWKKTCTTQHQLPKMLEEFSLVVHHCRLLGEEIEYLKRWGPNYNLMNIDINNNELRLLFSSSAAFAKFEITLFLSAYYPSVPLPSTIQNHVGNTSQDDIATILSKVPLENNYLKNVVKQIYQDLFQDCHFYH

Assays:
Mis12C^M5 (NSL1 I216A) = Mis12C^M5 (NSL1 I216A) (human, UniProt Q9H081 1-205; Q6P1K2 1-205; Q96IY1 1-281; Q9H410 1-356, I216A); assay: ITC
Mis12C^M3 = Mis12C^M3 (human, UniProt Q9H081 1-205; Q6P1K2 1-205; Q96IY1 1-281; Q9H410 1-356); assay: ITC
Mis12C^M4 = Mis12C^M4 (human, UniProt Q9H081 1-205; Q6P1K2 1-205; Q96IY1 1-281; Q9H410 1-356); assay: ITC
ZWINT^M2 [1] = molecular target: T1, ZWINT^M2 (human, UniProt O95229 1-277); assay: BLI; Kd2 (second site)
ZWINT^M1 [2] = molecular target: T2, ZWINT^M1 (human, UniProt O95229 1-277); assay: BLI; Kd2 (second site)
ZWINT^M2 [3] = molecular target: T1, ZWINT^M2; assay: BLI; Kd1
ZWINT^M1 [4] = molecular target: T2, ZWINT^M1; assay: BLI; Kd1

Mis12C^M4, sequence (Q9H081 whole entry, chain 1 of 4): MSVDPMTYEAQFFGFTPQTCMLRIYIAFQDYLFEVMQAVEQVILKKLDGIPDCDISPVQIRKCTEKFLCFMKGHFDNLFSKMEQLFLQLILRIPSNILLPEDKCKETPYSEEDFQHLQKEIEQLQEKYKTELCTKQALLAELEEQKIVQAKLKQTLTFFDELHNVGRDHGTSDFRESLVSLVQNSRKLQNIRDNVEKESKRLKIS
Mis12C^M4, sequence (Q6P1K2 whole entry, chain 2 of 4): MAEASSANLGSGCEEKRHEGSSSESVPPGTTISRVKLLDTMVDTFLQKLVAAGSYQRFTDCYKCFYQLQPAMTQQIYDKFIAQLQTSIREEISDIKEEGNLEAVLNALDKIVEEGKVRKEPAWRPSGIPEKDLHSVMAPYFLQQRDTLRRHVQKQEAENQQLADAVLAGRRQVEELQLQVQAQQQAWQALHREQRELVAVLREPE
Mis12C^M4, sequence (Q96IY1 whole entry, chain 3 of 4): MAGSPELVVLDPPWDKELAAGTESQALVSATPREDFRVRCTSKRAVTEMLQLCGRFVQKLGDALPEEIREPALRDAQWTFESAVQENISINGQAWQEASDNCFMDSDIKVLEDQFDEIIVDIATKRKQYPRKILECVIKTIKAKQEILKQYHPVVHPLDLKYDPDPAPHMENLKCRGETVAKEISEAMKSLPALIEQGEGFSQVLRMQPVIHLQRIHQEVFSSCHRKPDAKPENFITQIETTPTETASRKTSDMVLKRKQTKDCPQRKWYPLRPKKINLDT
Mis12C^M4, sequence (Q9H410 whole entry, chain 4 of 4): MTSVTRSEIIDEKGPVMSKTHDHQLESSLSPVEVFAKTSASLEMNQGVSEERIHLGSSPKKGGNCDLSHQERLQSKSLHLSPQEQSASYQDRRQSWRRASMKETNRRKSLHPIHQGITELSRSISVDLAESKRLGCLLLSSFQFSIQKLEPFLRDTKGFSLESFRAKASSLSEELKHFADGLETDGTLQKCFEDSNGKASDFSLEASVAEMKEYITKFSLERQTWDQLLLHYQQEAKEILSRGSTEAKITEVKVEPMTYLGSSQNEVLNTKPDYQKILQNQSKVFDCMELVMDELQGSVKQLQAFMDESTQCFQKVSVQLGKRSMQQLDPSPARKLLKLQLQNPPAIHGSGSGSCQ
Mis12C^M5 (NSL1 I216A), sequence (Q9H081 whole entry, chain 1 of 4): as the sequence (Q9H081 whole entry, chain 1 of 4) above
Mis12C^M5 (NSL1 I216A), sequence (Q6P1K2 whole entry, chain 2 of 4): as the sequence (Q6P1K2 whole entry, chain 2 of 4) above
Mis12C^M5 (NSL1 I216A), sequence (Q96IY1 whole entry I216A, chain 3 of 4): as the sequence (Q96IY1 whole entry, chain 3 of 4) above, with I216A counted along it
Mis12C^M5 (NSL1 I216A), sequence (Q9H410 whole entry, chain 4 of 4): as the sequence (Q9H410 whole entry, chain 4 of 4) above
Mis12C^M3, sequence (Q9H081 whole entry, chain 1 of 4): as the sequence (Q9H081 whole entry, chain 1 of 4) above
Mis12C^M3, sequence (Q6P1K2 whole entry, chain 2 of 4): as the sequence (Q6P1K2 whole entry, chain 2 of 4) above
Mis12C^M3, sequence (Q96IY1 whole entry, chain 3 of 4): as the sequence (Q96IY1 whole entry, chain 3 of 4) above
Mis12C^M3, sequence (Q9H410 whole entry, chain 4 of 4): as the sequence (Q9H410 whole entry, chain 4 of 4) above

| Binder | Kd (Mis12C^M5 (NSL1 I216A)) | Kd (Mis12C^M3) | Kd (Mis12C^M4) | Kd (ZWINT^M2 [1]) | Kd (ZWINT^M1 [2]) | Kd (ZWINT^M2 [3]) | Kd (ZWINT^M1 [4]) |
| --- | --- | --- | --- | --- | --- | --- | --- |
| B1 | 774 nM | 1170 nM | 451 nM | – | – | – | – |
| B2 | – | – | – | 250 nM | 25.1 nM | 1170 nM | 235 nM |
